First the molecules themselves.
B1: murine antibody 13C9 (A3) (antibody, V domains shown)
VH: QVQLKQSGAGLVKPGASVKLSCKASGYIFTEYIIHWVKQRSGQGLEWIGWFYPGSDNIKYNEKFKDKATLTADKSSSTVYMELSRLTSEDSAVYFCARHETGYFFDYWGQGTTLTVSS
VL: DIVITQSPAIMSASPGEKVTMTCSASSSVSKMNWYQQKSGTSPKRWIYDTSKLASGVPSRFSGSGSGTSYSLTISSMEAEDAATYYCQQWSSNPLTFGSGTKLELKR
notes: Mouse hybridoma antibody (subclone 13C9-1), tested as culture supernatant or purified; Only variable domains printed (the VL as printed ends in RA); also called 13C9-1
B2: chimeric antibody 13C9-1(chi) (antibody, V domains shown)
VH: B1 VH
VL: B1 VL
notes: Chimeric antibody of murine 13C9
B3: murine antibody 14A7 (A1) (antibody, V domains shown)
VH: QVQLKQSGAELVRPGTSVKMSCKATEYTFTNNWIAWVKQRPGHGLEWVGDIHPGGGFTNYNEKFKVKATLTADTSSSTAYMQLRSLTSEDSAIYYCAGSKTRDYDAWFAYWGQGTLVTVSA
VL: DIVMTQAPSSLAVSVGEKVTLNCKSSQSLLYTGNQKNYLAWYQQKPGQSPKLLIYWASTRESGVPDRFTGSGSGTDFTLTISNVKAEDLAVYFCQQYYTYRTFGGGTKLEIK
notes: Mouse hybridoma antibody (subclone 14A7-4), tested as culture supernatant or purified from it; Only the variable domains are printed; also called 14A7-4
B4: chimeric antibody 14A7(chi) (antibody, V domains shown)
VH: B3 VH
VL: DIVMTQAPSSLAVSVGEKVTLNCKSSQSLLYTGNQKNYLAWYQQKPGQSPKLLIYWASTRESGVPDRFTGSGSGTDFTLTISNVKAEDLAVYFCQQYYTYRTFGGGTKLEIKR
notes: also called 14A7-4(chi)
B5: humanized antibody 14A7(hz) (antibody, V domains shown)
VH: QVQLVQSGAEVKKPGASVKVSCKASEYTFTNNWIAWVRQAPGQGLEWVGDIHPGGGFTNYNEKFKVRATLTADTSTSTAYMELSSLRSEDTAVYYCAGSKTRDYDAWFAYWGQGTTVTVSS
VL: DIQMTQSPSTLSASVGDRVTITCKSSQSLLYTGNQKNYLAWYQQKPGKAPKLLIYWASTRESGVPSRFSGSGSGTEFTLTISSLQPDDFATYYCQQYYTYRTFGQGTKVEIKR
notes: also called 14A7-4(hz)
B6: murine antibody 18B4 (A4) (antibody, V domains shown)
VH: QVQLKQSGPELEKPGASVKISCKASGYSFTGYNMNWVKQSNGKSLEWIGNIDPYYGVTHYNQKFKGKATLTVDESSSTASMQLKSLTSEDSAIYYCARGIPFYGLDYWGQGTSVTVSS
VL: B1 VL with D1Q, I4L, S24G, K31F, N33H, S59A, S91N, S92T, L95F, L105I
notes: Mouse hybridoma antibody (subclone 18B4-2); Only variable domains printed; also called 18B4-2
B7: murine antibody 15G10 (A2) (antibody, V domains shown)
VH: QVQLKQSGPELVKPGASVKTSCKASGYTFTNYVVHWVKQNPGQGLEWIGYVNPNNDGTIFNEKFKDKAILTSDKSSSTAYMELSSLTSEDSAVYYCARSPFAHWGQGTLVTVSA
VL: QIVLTQSPASLTVSLGQRATISCSASESVDFYGTSLMQWFQQKPGQPPKLLVYTASNVDSEVPARFSGSGSGTDFSLNIHPVEEDDIAMYFCHQTRKVPYTFGGGTKLEIK
notes: Mouse hybridoma antibody (subclone 15G10-3), tested as culture supernatant; Only variable domains printed; also called 15G10-3
B8: murine antibody 8A2 (A8) (antibody, V domains shown)
VH: QVQLKQSGPGLVAPSQSLSITCTVSGFSLTGYGVNWVRQPPGKGLEWLGKIWGDGITDYNSALKSRLSISKDNSKSQVFLKMNSLQTDDTARYYCARDVMDYWGQGTSVTVSS
VL: QIVLTQSPAIMSASPGEKVTMTCSASSSISYMHWYQQKPGTSPKRWIYDTSKLASGVPARFSGSESGTSYSLTISSMEAEDAATYYCHHRSPYPTFGAGTKLELK
notes: Mouse hybridoma antibody (subclone 8A2-2); Only variable domains printed; also called 8A2-2
B9: murine antibody 28B1 (A5), subclone 28B1-2 (antibody, V domains shown)
VH: QVQLKQSGAELVKPGASVMLSCTASAFNIDDTYIHWVKQRPEQGLEWIGRIDPANGNTDYDPECQGKATITTDMSSNTAYLQLSSLTSEDTAVYFCARGLRLPGLVYWGRGTLVTVSA
VL: DIQMTQTTSSLSASLGDRVTISCRASQDISNYLNWYQQKPDGTVKLLIYYTSILYSGVPSRFSGSGSGTDYSLTINTLEEEDIATYFCQQGNTLPWTFGGGTKLEIIR
notes: Mouse hybridoma antibody; Only variable domains printed
B10: murine antibody 22B10 (A6) (antibody, V domains shown)
VH: QVQLKQSGAELVKPGASVELSCTASGFNIEDTYLHWVNQRPEQGLEWIGRIDPANGNTYYDPKFQGKATITTDTSSNTAYLQLSRLTSEDTAVYYCARGLRLPGFPYWGQGTLVTVSA
VL: B9 VL with T8P, N34S, Y55H, T74A, N76S, T77N, E79D, E80Q, I107K
notes: Mouse hybridoma antibody (subclone 22B10-1); Only variable domains printed; also called 22B10-1
B11: murine antibody 6G5 (A12) (antibody, V domains shown)
VH: B3 VH with V48I, F57Y, V66G, R84S, A106S
VL: B1 VL
notes: Mouse hybridoma antibody (subclone 6G5-2); Only variable domains printed; the printed VL is identical to that of 13C9; also called 6G5-2
B12: murine antibody 2E5 (A10) (antibody, V domains shown)
VH: B8 VH with D88E
VL: DVLMTQIPLSLPVSLGDQASISCRSSQSIEQSNGNTYLEWYLQKPGQSPKVLIYKVSNRFSGVPDRFSGSGSGTDFTLKISRVESEDLGVYYCFQGSHVPYTFGGGTKLEIK
notes: Mouse hybridoma antibody (subclone 2E5-9); Only variable domains printed; also called 2E5-9
B13: murine antibody 10A3 (A11) (antibody, V domains shown)
VH: B8 VH with D88E
VL: QIVLTQSPAIMSASPGEKVTMTCSASSSINYMHWFQQKPGTSPKRWIYDTSKLASGVPARFSGSESGTSYSLTISSMEAEDAATYYCHHRSPYPTFGAGTKLELKR
notes: Mouse hybridoma antibody (subclone 10A3-3); Only variable domains printed; also called 10A3-3
B14: murine antibody 7E5 (A9) (antibody, V domains shown)
VH: B8 VH with I56S, N60T, M82V
VL: B8 VL with Y35F, H89Q
notes: Mouse hybridoma antibody (subclone 7E5-2); Only variable domains printed; also called 7E5-2
B15: murine antibody 28B1 (A5), subclone 28B1-7 (antibody, V domains shown)
VH: B9 VH
VL: B9 VL

We go through 15 molecules from US20220396624A1 (HC BIOPHARMA SHANGHAI, published 2022).

Positions count from the first letter of the chain named. Where only a bound is given, the exact number is not on record here.

T3 sequence (Q9NZQ7 19-238): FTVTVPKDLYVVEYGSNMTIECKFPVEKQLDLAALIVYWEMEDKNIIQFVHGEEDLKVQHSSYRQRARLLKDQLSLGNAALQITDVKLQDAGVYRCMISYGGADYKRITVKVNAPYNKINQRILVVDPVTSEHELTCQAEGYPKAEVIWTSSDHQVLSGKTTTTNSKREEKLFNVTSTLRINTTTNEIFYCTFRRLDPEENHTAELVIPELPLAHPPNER

The target of the first test is T1, human PD-L1 on 293T-h-PDL1 cells (human, UniProt Q9NZQ7 19-238). Description: FACS, purified antibody on 293T-h-PDL1 cells. Background: In flow cytometry, cells or beads pass a laser one at a time.
T1 sequence (Q9NZQ7 19-238): as above
Description: (§1) Then 100 μl of flow cytometry buffer was added to each flow cytometry tube and resuspension was performed. […] Then 1 ml of flow cytometry buffer was added and centrifuged at 1200 rpm for 5 minutes at room temperature, the supernatant was discarded and the washing was repeated three times. 250 μl of flow cytometry buffer was added to each flow cytometry tube again, the pellet was resuspended and mixed. The resulting samples was detected by the machine.
Control tube 1 (no antibody and secondary antibody, only cell suspension was added) and control tube 2 (no antibody, only cell suspension and secondary antibody was added) were set.
Broadly, the EC50 is the midpoint of the concentration-response curve. Read a low EC50 as higher potency in that assay. Turning to B1, it took 0.49 µg/mL to reach a half-maximal effect (EC50).

In the case of B2, the midpoint of the response, the EC50, lay at 1.42 µg/mL.

On to B3, for which it took 0.8 µg/mL to reach a half-maximal effect (EC50).

For the molecule B4, the 50% effective concentration (EC50) amounted to 1.32 µg/mL.

Consider B5, for which a half-maximal response (EC50) required 0.77 µg/mL.

A further test addresses T1, human PD-L1 on 293T-h-PDL1 cells. The experiment in a line: FACS, hybridoma culture supernatant on 293T-h-PDL1 cells.
Description: 1 ml of flow cytometry buffer was added to each flow cytometry tube and centrifuged at 1200 rpm for 5 minutes. The supernatant was discarded and the washing was repeated three times. At the same time, both control tube 1 (no culture supernatant and secondary antibody below, only the cell suspension was added) and control tube 2 (no culture supernatant, only cell suspension and secondary antibody below were added) were set.
as §1
Molecule B1 displayed a 50% effective concentration (EC50) of 0.44 µg/mL.

As for B6, the midpoint of the response, the EC50, lay at 0.125 µg/mL.

With B3, the response was half-maximal at 0.538 µg/mL (EC50).

Regarding B7, the EC50 amounted to 1.45 µg/mL.

For B8, the EC50 is 0.336 µg/mL.

B9 yielded an EC50 of 0.39 µg/mL.

B10 yielded an EC50 of 0.517 µg/mL.

In another test the target is T2, fusion protein of the extracellular region of human PD-L1 and human IgG1-FC (human, UniProt Q9NZQ7 19-238).
T2 construct: PD-L1 is put first by convention; also called fusion protein PD-L1 (hFC tag)
T2 sequence (Q9NZQ7 19-238): as above
Description: FACS blocking of PD-L1-hFc binding to 293T-h-PD1 cells, purified antibody.
Description: (§2) Each well was then washed twice by adding 400 μl FACS buffer, PE anti-human IgG Fc secondary antibody was added and incubated for 1 hour, after which each well was washed twice by adding 400 μl FACS buffer. Detection was performed.
By IC50 is commonly meant the concentration needed to halve the response being measured. A lower IC50 goes with higher potency. B1 gave a 50% inhibitory concentration (IC50) of 2.38 µg/mL.

Turning to B2, the half-maximal inhibitory concentration (IC50) turned out to be 2.47 µg/mL.

B3 had an IC50 of 2.27 µg/mL.

B4 had a concentration for half-maximal inhibition (IC50) of 5.66 µg/mL.

B5 had an IC50 of 1.95 µg/mL.

Another test addresses T2, fusion protein of the extracellular …. The experiment in a line: FACS blocking of PD-L1-hFc binding to 293T-h-PD1 cells, hybridoma supernatant.
Description: as §2
B1 came in with an IC50 of 1.95 µg/mL.

In turn, B3 gave an IC50 of 2.31 µg/mL.

In turn, B7 returned a half-maximal inhibitory concentration (IC50) of 4 µg/mL.

Molecule B8 came in with an IC50 of 5.17 µg/mL.

B9 had an IC50 of 2.31 µg/mL.

The molecule B10 registered an IC50 of 4.31 µg/mL.

The next test concerns the target T3, extracellular region of human PD-L1 protein (positions 19-238 of SEQ ID NO: 3) (human, UniProt Q9NZQ7 19-238).
T3 construct: also called Human PD-L1-his; antigen PD-L1
Description: ForteBio Octet (BLI), antibody 20 nM, PD-L1 ECD from 30 nM in 3-fold dilutions. A general note: Biolayer interferometry detects binding as a change in optical thickness at a sensor tip.
Description: The murine antibody, chimeric antibody and humanized antibody of the present invention were dissolved in PBS to obtain 20 nM solutions.
The affinities of the antibody-antigen were determined using the ForteBio Octet as an affinity detection instrument.
As a reminder, the Kd is the concentration at which binding is half-saturated. The koff is the rate constant with which the complex falls apart. Consider B3, for which the Kd amounted to 0.545 nM and the koff came to 0.000359 s⁻¹.

For the molecule B4, the Kd turned out to be 4.56 nM and the off-rate constant (koff) worked out at 0.00173 s⁻¹.

In turn, B5 gave a Kd of 0.884 nM and a koff of 0.000358 s⁻¹.

The next test addresses T3, extracellular region of human PD-L1 …. Description: ForteBio Octet (BLI), antibody immobilized, PD-L1 ECD 6.25-200 nM; culture supernatant.
Description: (§3) A 96-well plate was obtained, and 200 μl SD buffer (1×PBS+0.02% Tween20+0.1% BSA) was added to each well, the plate was placed in ForteBio Octet and pre-circulated.
Molecule B1 had a Kd of 0.00181 nM and a dissociation rate constant (koff) of 6.32e-07 s⁻¹.

The molecule B11 displayed a dissociation constant Kd of 0.111 nM and a dissociation rate constant (koff) of 7.94e-05 s⁻¹.

B6: the dissociation constant (Kd) worked out at 0.586 nM and the dissociation rate constant (koff) was 0.000662 s⁻¹.

The molecule B3 showed a Kd of 0.0557 nM and an off-rate constant (koff) of 2.78e-05 s⁻¹.

Turning to B8, the dissociation constant (Kd) amounted to 2.04 nM and the koff stood at 0.00034 s⁻¹.

In turn, B12 came in with a Kd of 0.175 nM and an off-rate (koff) of 5.61e-05 s⁻¹.

Turning to B13, the Kd turned out to be 0.34 nM and the off-rate constant (koff) is 5.15e-05 s⁻¹.

In turn, B14 displayed a Kd of 0.498 nM and a koff of 0.000172 s⁻¹.

B9 came in with a dissociation constant Kd of 0.00924 nM and a koff of 6.26e-06 s⁻¹.

Regarding B15, the Kd was less than 0.001 nM and the dissociation rate constant (koff) was less than 1e-07 s⁻¹.

As to B10, the Kd worked out at 0.0714 nM and the dissociation rate constant (koff) stood at 4.43e-05 s⁻¹.

The target is the same in another test. Description: ForteBio Octet (BLI), antibody immobilized, PD-L1 ECD 6.25-200 nM; antibody after purification.
Description: as §3
The antibody was immobilized and the concentration of the antibody after supernatant purification was 10 μg/ml.
The molecule B1 yielded a Kd of 2.78 nM and a koff of 0.00117 s⁻¹.

With B11, binding was characterised by a dissociation constant (Kd) of 1.07 nM and the koff was 0.000838 s⁻¹.

Turning to B6, the Kd came to 936 nM and the koff was found to be 0.191 s⁻¹.

Molecule B3 came in with a Kd of 0.882 nM and a dissociation rate constant (koff) of 0.000647 s⁻¹.

Molecule B8 came in with a Kd of 4200 nM and a koff of 0.137 s⁻¹.

B12 returned a Kd of 15 nM and a koff of 0.00376 s⁻¹.

In turn, B13 gave a Kd of 906 nM and a koff of 0.0296 s⁻¹.

Turning to B14, the Kd was 3930 nM and the koff is 0.11 s⁻¹.

The molecule B9 showed a Kd of 0.785 nM and a koff of 0.000785 s⁻¹.

B15 registered a Kd of 0.748 nM and a koff of 0.000723 s⁻¹.

With B10, the dissociation constant (Kd) turned out to be 0.528 nM and the dissociation rate constant (koff) was 0.000481 s⁻¹.
